Experimental data published in article PMC7784771.

What was measured:
TDP-43 RRM1-RRM2 = TDP-43 RRM1-RRM2 (human, UniProt Q13148 101-265); experiment: fluorescence polarization
TDP-43 RRM1 = TDP-43 RRM1 (human, UniProt Q13148 101-191); experiment: fluorescence polarization
Sequence of TDP-43 RRM1 (Q13148 101-191): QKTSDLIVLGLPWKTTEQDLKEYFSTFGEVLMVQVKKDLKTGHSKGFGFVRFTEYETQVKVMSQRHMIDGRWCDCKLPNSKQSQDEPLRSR

Sequence of TDP-43 RRM1-RRM2 (Q13148 101-265): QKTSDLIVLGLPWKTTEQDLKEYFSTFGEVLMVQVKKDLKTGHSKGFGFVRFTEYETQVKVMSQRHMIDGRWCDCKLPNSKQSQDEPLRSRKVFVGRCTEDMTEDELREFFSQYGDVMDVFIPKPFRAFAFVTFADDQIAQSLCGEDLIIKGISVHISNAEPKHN

UGUGUGUGUGUG (ssRNA) [(UG)6 RNA]
Kd (TDP-43 RRM1-RRM2): 9.5 ± 1.3 nM | Kd (TDP-43 RRM1): 56.9 ± 2.1 nM
